Measured values taken from patent US12698507B2, “Methods and compositions for conferring and/or enhancing herbicide tolerance using protoporphyrinogen IX oxidase of various cyanobacteria or variant thereof” (FarmHannong Co., Ltd., priority 2019, dated 2026).
Positions count from the first letter of the chain named. In names and notes the source's numbering stands.

System: PPO-deficient BT3 E. coli (ΔPPO)
Test: PPO-inhibiting herbicide tolerance test of PPO variants in E. coli (growth on herbicide-containing LB agar)
Type: cell-based
Conditions: CyPPO19 variants in BT3 (ΔPPO) E. coli; LB agar with 0 to 2,000 μM herbicide, 37° C., dark, 16-20 hours
Source text: To enhance the PPO-inhibiting herbicide resistance of CyPPO19 and CyPPO18, PPO variant genes of the above example 2 were constructed. They were transformed to BT3 (ΔPPO) strain which is deficient of PPO activity and cultured in LB media with PPO-inhibiting herbicide, thereby examining whether growth of transformed BT3 was not inhibited.
BT3 competent cells were transformed with the pET303-CyPPO19 (wild type), pET303-CyPPO18 (wild type) plasmids, and those with a mutation(s) constructed (refer to example 2) via heat shock method, and were cultured in LB agar media containing ampicillin.
Single colony transformed with each CyPPO gene was cultured in 3 mL of LB broth (LPSS) containing ampicillin for more than 12 hours, and then was subcultured in LB broth until absorbance (OD600) reached 0.5 to 1. Then, it was diluted with LB broth to OD600=0.5. Again, the diluted solution was serially diluted 4 times by a factor of one tenth.
The LB agar media (LB 25 g/L, Bacto agar 12 g/L) containing ampicillin (100 μg/mL) and 0 to 2,000 μM of various herbicides were prepared. Herbicide solution stocks were all prepared in DMSO.
Then, 10 μL of each diluted solution of E. coli was dropped on the plate and cultured at 37° C. under dark for 16-20 hours. PPO-inhibiting herbicide resistance was evaluated with the extent of E. coli growth containing each gene was observed.
The extent of herbicide resistance was evaluated by the relative growth of variants to that of wild type, and listed in Tables 9 and 10 and FIGS. 3 to 32.
In Tables 9 and 10, the tolerance level of variants showing equivalent resistance to wild type was presented as ‘−’, and was done as ‘+’ per each 10-fold resistance until ‘+++++’ as maximal resistance.
FIGS. 3 to 30 and FIGS. 31 and 32 show the transformed E. coli growth result of CyPPO19 WT and its variants and CyPPO18 WT and its variants, respectively. The concentrations of herbicides were written above the photographs of tolerance test. A 10-fold dilution series of spots were shown from OD600=0.5 of the leftmost spot to OD600=0.00005 of the rightmost one.

B1: CyPPO19 R89A + I408W + F360V: variant of CyPPO19 PPO protein (SEQ ID NO: 1) (protein)
chain: MSEVDVAIVGGGLSGLSLAWRLQQSAPQYSVVLLEASDRLGGNITTQTAEGFVWELGPNSFAPTPALLQLIAEVGLQSELIRGDRHLPAYIYWRGQLYPLQPTRPLALATSNLLSPWGKVRAALGALGFVPPYLGSGDESVNSFFRRHLGQEVAERLVAPFVSGVYAGDPQQLSAAAAFRRIAQLEKLGGGLIAGALHLRRQQAPKPKPPTSVQMRPGELGSFKEGLAALPRAIAQQLKAPIHLQTPVQEITPDPKGGYLLRSGEQTWRARSVVLATPAYQTAELVAPFQPAIARVLATIPYPTVACVVLAYPAGLGRSVRPGFGVLIPRSQGIRTLGTIWSSCLFPQRTPAGWQVFTSVIGGATDPDLASLSEEAIVQQVQQDLNRLLDLPAAKARLLGMKVWRRAWPQYMVGYPEQWQQVTHALSQTPGLFLCSNYAEGVALGDRVEHGNRTAAAVAAYLSGGQP
modifications: Synthetic_PPO of Thermosynechococcus elongatus PKUAC-SCTE542 (comprising GenBank No. CP032152.1)
tolerance level relative to wild type, Carfentrazone: + (‘+’ per each 10-fold resistance) | tolerance level relative to wild type, Flumioxazin: +++++ (until ‘+++++’ as maximal resistance) | tolerance level relative to wild type, Fomesafen: +++++ (until ‘+++++’ as maximal resistance) | tolerance level relative to wild type, Oxyfluorfen: +++ (‘+’ per each 10-fold resistance) | tolerance level relative to wild type, Saflufenacil: +++++ (until ‘+++++’ as maximal resistance) | tolerance level relative to wild type, Sulfentrazone: +++++ (until ‘+++++’ as maximal resistance) | tolerance level relative to wild type, Tiafenacil: +++++ (until ‘+++++’ as maximal resistance)

B2: CyPPO19 V165S + V305L + F360L: variant of CyPPO19 PPO protein (SEQ ID NO: 1) (protein)
chain: B1 chain with A89R, V165S, V305L, V360L, W408I
modifications: Synthetic_PPO of Thermosynechococcus elongatus PKUAC-SCTE542 (comprising GenBank No. CP032152.1)
tolerance level relative to wild type, Carfentrazone: + (‘+’ per each 10-fold resistance) | tolerance level relative to wild type, Flumioxazin: +++++ (until ‘+++++’ as maximal resistance) | tolerance level relative to wild type, Fomesafen: +++ (‘+’ per each 10-fold resistance) | tolerance level relative to wild type, Oxyfluorfen: +++ (‘+’ per each 10-fold resistance) | tolerance level relative to wild type, Saflufenacil: +++++ (until ‘+++++’ as maximal resistance) | tolerance level relative to wild type, Sulfentrazone: +++++ (until ‘+++++’ as maximal resistance) | tolerance level relative to wild type, Tiafenacil: +++++ (until ‘+++++’ as maximal resistance)

B3: CyPPO19 V165C + A167L + F360T: variant of CyPPO19 PPO protein (SEQ ID NO: 1) (protein)
chain: B1 chain with A89R, V165C, A167L, V360T, W408I
modifications: Synthetic_PPO of Thermosynechococcus elongatus PKUAC-SCTE542 (comprising GenBank No. CP032152.1)
tolerance level relative to wild type, Carfentrazone: + (‘+’ per each 10-fold resistance) | tolerance level relative to wild type, Flumioxazin: +++ (‘+’ per each 10-fold resistance) | tolerance level relative to wild type, Fomesafen: ++ (‘+’ per each 10-fold resistance) | tolerance level relative to wild type, Oxyfluorfen: + (‘+’ per each 10-fold resistance) | tolerance level relative to wild type, Saflufenacil: +++ (‘+’ per each 10-fold resistance) | tolerance level relative to wild type, Sulfentrazone: +++ (‘+’ per each 10-fold resistance) | tolerance level relative to wild type, Tiafenacil: ++++ (‘+’ per each 10-fold resistance)

B4: CyPPO19 V165C + V305M + F360V: variant of CyPPO19 PPO protein (SEQ ID NO: 1) (protein)
chain: B1 chain with A89R, V165C, V305M, W408I
modifications: Synthetic_PPO of Thermosynechococcus elongatus PKUAC-SCTE542 (comprising GenBank No. CP032152.1)
tolerance level relative to wild type, Carfentrazone: + (‘+’ per each 10-fold resistance) | tolerance level relative to wild type, Flumioxazin: +++++ (until ‘+++++’ as maximal resistance) | tolerance level relative to wild type, Fomesafen: ++ (‘+’ per each 10-fold resistance) | tolerance level relative to wild type, Oxyfluorfen: +++ (‘+’ per each 10-fold resistance) | tolerance level relative to wild type, Saflufenacil: +++++ (until ‘+++++’ as maximal resistance) | tolerance level relative to wild type, Sulfentrazone: ++++ (‘+’ per each 10-fold resistance) | tolerance level relative to wild type, Tiafenacil: +++++ (until ‘+++++’ as maximal resistance)

B5: CyPPO19 V165C + V305M + F360I: variant of CyPPO19 PPO protein (SEQ ID NO: 1) (protein)
chain: B1 chain with A89R, V165C, V305M, V360I, W408I
modifications: Synthetic_PPO of Thermosynechococcus elongatus PKUAC-SCTE542 (comprising GenBank No. CP032152.1)
tolerance level relative to wild type, Carfentrazone: + (‘+’ per each 10-fold resistance) | tolerance level relative to wild type, Flumioxazin: +++++ (until ‘+++++’ as maximal resistance) | tolerance level relative to wild type, Fomesafen: ++ (‘+’ per each 10-fold resistance) | tolerance level relative to wild type, Oxyfluorfen: ++ (‘+’ per each 10-fold resistance) | tolerance level relative to wild type, Saflufenacil: +++++ (until ‘+++++’ as maximal resistance) | tolerance level relative to wild type, Sulfentrazone: +++ (‘+’ per each 10-fold resistance) | tolerance level relative to wild type, Tiafenacil: +++++ (until ‘+++++’ as maximal resistance)

B6: CyPPO19 V165S + A167I + F360M: variant of CyPPO19 PPO protein (SEQ ID NO: 1) (protein)
chain: B1 chain with A89R, V165S, A167I, V360M, W408I
modifications: Synthetic_PPO of Thermosynechococcus elongatus PKUAC-SCTE542 (comprising GenBank No. CP032152.1)
tolerance level relative to wild type, Carfentrazone: + (‘+’ per each 10-fold resistance) | tolerance level relative to wild type, Flumioxazin: +++++ (until ‘+++++’ as maximal resistance) | tolerance level relative to wild type, Fomesafen: ++ (‘+’ per each 10-fold resistance) | tolerance level relative to wild type, Oxyfluorfen: ++ (‘+’ per each 10-fold resistance) | tolerance level relative to wild type, Saflufenacil: ++++ (‘+’ per each 10-fold resistance) | tolerance level relative to wild type, Sulfentrazone: +++ (‘+’ per each 10-fold resistance) | tolerance level relative to wild type, Tiafenacil: +++++ (until ‘+++++’ as maximal resistance)

B7: CyPPO19 V165S + A167C + F360L: variant of CyPPO19 PPO protein (SEQ ID NO: 1) (protein)
chain: B1 chain with A89R, V165S, A167C, V360L, W408I
modifications: Synthetic_PPO of Thermosynechococcus elongatus PKUAC-SCTE542 (comprising GenBank No. CP032152.1)
tolerance level relative to wild type, Carfentrazone: + (‘+’ per each 10-fold resistance) | tolerance level relative to wild type, Flumioxazin: ++++ (‘+’ per each 10-fold resistance) | tolerance level relative to wild type, Fomesafen: + (‘+’ per each 10-fold resistance) | tolerance level relative to wild type, Oxyfluorfen: + (‘+’ per each 10-fold resistance) | tolerance level relative to wild type, Saflufenacil: +++ (‘+’ per each 10-fold resistance) | tolerance level relative to wild type, Sulfentrazone: ++ (‘+’ per each 10-fold resistance) | tolerance level relative to wild type, Tiafenacil: ++++ (‘+’ per each 10-fold resistance)

B8: CyPPO19 R89A + I408R + F360L: variant of CyPPO19 PPO protein (SEQ ID NO: 1) (protein)
chain: B1 chain with V360L, W408R
modifications: Synthetic_PPO of Thermosynechococcus elongatus PKUAC-SCTE542 (comprising GenBank No. CP032152.1)
tolerance level relative to wild type, Carfentrazone: + (‘+’ per each 10-fold resistance) | tolerance level relative to wild type, Flumioxazin: +++ (‘+’ per each 10-fold resistance) | tolerance level relative to wild type, Fomesafen: + (‘+’ per each 10-fold resistance) | tolerance level relative to wild type, Oxyfluorfen: + (‘+’ per each 10-fold resistance) | tolerance level relative to wild type, Saflufenacil: +++ (‘+’ per each 10-fold resistance) | tolerance level relative to wild type, Sulfentrazone: ++ (‘+’ per each 10-fold resistance) | tolerance level relative to wild type, Tiafenacil: +++ (‘+’ per each 10-fold resistance)
